Read-outs that look alike come from different tables or passages of the source.
T1: FcgRIIa R (human, UniProt P12318 34-217)
T1 construct: extracellular domain; also called FcγRIIa R; FcγRIIa type R; not shown: His tag attached to the C terminus
T1 sequence (looked up): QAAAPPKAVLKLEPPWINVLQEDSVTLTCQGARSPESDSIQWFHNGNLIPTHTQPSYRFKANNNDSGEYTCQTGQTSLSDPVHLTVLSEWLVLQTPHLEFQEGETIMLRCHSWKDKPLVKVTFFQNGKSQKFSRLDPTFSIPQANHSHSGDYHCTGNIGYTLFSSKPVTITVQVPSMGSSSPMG

T2: FcgRIIa H (human, UniProt P12318 34-217)
T2 construct: extracellular domain; also called FcγRIIa H; FcγRIIa type H; not shown: His tag attached to the C terminus
T2 sequence (looked up): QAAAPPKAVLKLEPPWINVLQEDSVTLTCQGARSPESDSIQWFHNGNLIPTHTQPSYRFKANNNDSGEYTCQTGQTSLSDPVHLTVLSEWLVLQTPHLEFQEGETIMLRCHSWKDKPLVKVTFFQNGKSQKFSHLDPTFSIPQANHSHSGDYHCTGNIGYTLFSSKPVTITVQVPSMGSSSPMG

T3: FcgRIIb (human, UniProt P31994 43-217)
T3 construct: extracellular domain; Expressed in FreeStyle293 cells and purified; used as analyte in Biacore; also called FcγRIIb; CD32B; not shown: His tag attached to the C terminus
T3 sequence (looked up): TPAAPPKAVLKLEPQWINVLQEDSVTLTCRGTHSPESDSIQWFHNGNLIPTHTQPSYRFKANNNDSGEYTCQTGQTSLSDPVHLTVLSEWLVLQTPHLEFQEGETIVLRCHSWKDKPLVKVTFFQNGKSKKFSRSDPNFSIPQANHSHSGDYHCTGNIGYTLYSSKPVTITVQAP


How the values were obtained:
Assay in all cases: SPR (Biacore), antibody captured on chip, FcgR extracellular domain as analyte
FcgRIIa R [1] = biological target: T1, FcgRIIa R
Description: (§1) Analysis of interaction between obj ective antibody and the FcγR was carried out using Biacore T100 (GE Healthcare), Biacore T200, Biacore A100, and Biacore 4000. HBS-EP+ (GE Healthcare) was used as the running buffer, and the measurement temperature was set to 25° C. Chips produced by immobilizing the antigen peptide by the amine coupling method to a Series S sensor Chip CM5 (GE Healthcare), chips produced by allowing preliminarily biotinylated antigen peptides to interact with and immobilize onto a Series S Sensor Chip SA (certified) (GE Healthcare), chips produced by immobilizing Protein L (ACTIGEN, BioVision) to Series S Sencor Chip CM5 (GE Healthcare), or chips produced by immobilizing Protein A/G (Thermo Scientific) to Series S Sencor Chip CM5 (GE Healthcare) were used. Antibodies of interest were captured onto these chips, and allowed to interact to each FcγR diluted with running buffer. To regenerate and repeatedly use the chip, the antibodies captured onto the chip were washed off by reacting 10 mM glycine-HCl, pH 1.5.

FcgRIIa H [2] = biological target: T2, FcgRIIa H
Description: as §1

FcgRIIIa F [3] = biological target: T4, FcgRIIIa F (human, UniProt P08637 17-208)
T4 construct: extracellular domain; also called FcγRIIIa F; not shown: His tag attached to the C terminus
T4 sequence (P08637 17-208): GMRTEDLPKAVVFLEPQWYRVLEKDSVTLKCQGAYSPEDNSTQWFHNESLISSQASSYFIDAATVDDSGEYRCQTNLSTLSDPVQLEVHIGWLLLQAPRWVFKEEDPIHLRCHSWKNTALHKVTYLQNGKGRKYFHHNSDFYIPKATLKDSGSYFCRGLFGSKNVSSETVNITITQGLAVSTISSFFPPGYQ
Description: as §1

FcgRIIIa V [4] = biological target: T5, FcgRIIIa V (human, UniProt P08637 17-208)
T5 construct: extracellular domain; also called FcγRIIIa V; not shown: His tag attached to the C terminus
T5 sequence (P08637 17-208 F176V limits assumed): as the sequence (P08637 17-208) above, with F160V counted along it
Description: as §1

FcgRIa = biological target: T6, FcgRIa (human, UniProt P12314 16-292)
T6 construct: extracellular domain; Expressed in FreeStyle293 cells and purified; used as analyte in Biacore; also called FcγRIa; FcγRI; not shown: His tag attached to the C terminus
T6 sequence (P12314 16-292): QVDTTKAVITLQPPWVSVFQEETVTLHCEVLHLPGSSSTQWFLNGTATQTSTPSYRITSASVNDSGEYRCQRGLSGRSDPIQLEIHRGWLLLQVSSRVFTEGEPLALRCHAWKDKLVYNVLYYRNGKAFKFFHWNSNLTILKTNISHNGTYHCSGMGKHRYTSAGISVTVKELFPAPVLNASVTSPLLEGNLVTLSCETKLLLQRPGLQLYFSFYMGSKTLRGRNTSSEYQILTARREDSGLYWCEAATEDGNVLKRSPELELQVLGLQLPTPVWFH
Description: (§2) Specifically, H240-Kn120 (SEQ ID NO: 99) resulting from introduction of S239M into H240-Kn067 and H240-Kn126 (SEQ ID NO: 100) resulting from introduction of Y235Q into H240-Kn120 were prepared according to the method described in Reference Example 1. […] Those described above were assayed for the binding to each FcgR according to the method described in Reference Example 8.
as §1

FcgRIIa R [5] = biological target: T1, FcgRIIa R; remark: listed apart in the source
Description: as §2, §1

FcgRIIa H [6] = biological target: T2, FcgRIIa H; remark: listed apart in the source
Description: as §2, §1

FcgRIIb = biological target: T3, FcgRIIb
Description: as §2, §1

FcgRIIIa F [7] = biological target: T4, FcgRIIIa F; remark: listed apart in the source
Description: as §2, §1

FcgRIIIa V [8] = biological target: T5, FcgRIIIa V; remark: listed apart in the source
Description: as §2, §1

| Binder | Kd (FcgRIIa R [1]) [nM] | Kd (FcgRIIa H [2]) [nM] | Kd (FcgRIIIa F [3]) [nM] | Kd (FcgRIIIa V [4]) [nM] | Kd (FcgRIa) [nM] | Kd (FcgRIIa R [5]) [nM] | Kd (FcgRIIa H [6]) [nM] | Kd (FcgRIIb) [nM] | Kd (FcgRIIIa F [7]) [nM] | Kd (FcgRIIIa V [8]) [nM] |
| --- | --- | --- | --- | --- | --- | --- | --- | --- | --- | --- |
| H240-Kn067/H240-Hl068/L73-k0 (antibody, human IgG1, kappa, Heterodimerized anti-EREG IgG1: L234Y/L235Y/G236W/H268D/S298A/A327D in Kn067, D270E/K326D/A330K/K334E in Hl068; also called H240-Kn067/H240-HI068/L73-k0) heavy 1: QDQLVQSGAEVKKPGASVKVSCKASGFNIKDTYIQWVRQAPGQGLEWMGRIDPLRKQTKYREKFEGRVTITADTSTNTAYMELSSLRSEDTAVYYCVRSGREFDYWGQGTLVTVSSASTKGPSVFPLAPSSKSTSGGTAALGCLVKDYFPEPVTVSWNSGALTSGVHTFPAVLQSSGLYSLSSVVTVPSSSLGTQTYICNVNHKPSNTKVDKKVEPKSCDKTHTCPPCPAPEYYWGPSVFLFPPKPKDTLMISRTPEVTCVVVDVSDEDPEVKFNWYVDGVEVHNAKTKPREEQYNATYRVVSVLTVLHQDWLNGKEYKCKVSNKDLPAPIEKTISKAKGQPREPQVCTLPPSRDELTKNQVSLWCLVKGFYPSDIAVEWESNGQPENNYKTTPPVLDSDGSFFLYSKLTVDKSRWQQGNVFSCSVMHEALHNHYTQKSLSLSP heavy 2: QDQLVQSGAEVKKPGASVKVSCKASGFNIKDTYIQWVRQAPGQGLEWMGRIDPLRKQTKYREKFEGRVTITADTSTNTAYMELSSLRSEDTAVYYCVRSGREFDYWGQGTLVTVSSASTKGPSVFPLAPSSKSTSGGTAALGCLVKDYFPEPVTVSWNSGALTSGVHTFPAVLQSSGLYSLSSVVTVPSSSLGTQTYICNVNHKPSNTKVDKKVEPKSCDKTHTCPPCPAPELLGGPSVFLFPPKPKDTLMISRTPEVTCVVVDVSHEEPEVKFNWYVDGVEVHNAKTKPREEQYNSTYRVVSVLTVLHQDWLNGKEYKCKVSNDALPKPIEETISKAKGQPREPQVYTLPPSRCELTKNQVSLSCAVKGFYPSDIAVEWESNGQPENNYKTTPPVLDSDGSFFLVSKLTVDKSRWQQGNVFSCSVMHEALHNHYTQKSLSLSP light: DIQMTQSPSSLSASVGDRVTITCRASQDIHKYIAWYQQKPGQAPRLLIQYTSTLQPGVPSRFSGSGSGTDYTFTISSLQPEDIATYYCLQYEQLRTFGGGTKVEIKRTVAAPSVFIFPPSDEQLKSGTASVVCLLNNFYPREAKVQWKVDNALQSGNSQESVTEQDSKDSTYSLSSTLTLSKADYEKHKVYACEVTHQGLSSPVTKSFNRGEC | 49 | 94 | 7.1 | 1.6 | 0.26 | 49 | 94 | 370 | 7.1 | 1.6 |
| H240-Kn037/H240-Hl036/L73-k0 (antibody, human IgG1, kappa, this is a derivation) heavy 1: QDQLVQSGAEVKKPGASVKVSCKASGFNIKDTYIQWVRQAPGQGLEWMGRIDPLRKQTKYREKFEGRVTITADTSTNTAYMELSSLRSEDTAVYYCVRSGREFDYWGQGTLVTVSSASTKGPSVFPLAPSSKSTSGGTAALGCLVKDYFPEPVTVSWNSGALTSGVHTFPAVLQSSGLYSLSSVVTVPSSSLGTQTYICNVNHKPSNTKVDKKVEPKSCDKTHTCPPCPAPELLAGPDVFLFPPKPKDTLMISRTPEVTCVVVDVSHEDPEVKFNWYVDGVEVHNAKTKPREEQYNSTYRVVSVLTVLHQDWLNGKEYKCKVSNKALPAPEEKTISKAKGQPREPQVCTLPPSRDELTKNQVSLWCLVKGFYPSDIAVEWESNGQPENNYKTTPPVLDSDGSFFLYSKLTVDKSRWQQGNVFSCSVMHEALHNHYTQKSLSLSP heavy 2: QDQLVQSGAEVKKPGASVKVSCKASGFNIKDTYIQWVRQAPGQGLEWMGRIDPLRKQTKYREKFEGRVTITADTSTNTAYMELSSLRSEDTAVYYCVRSGREFDYWGQGTLVTVSSASTKGPSVFPLAPSSKSTSGGTAALGCLVKDYFPEPVTVSWNSGALTSGVHTFPAVLQSSGLYSLSSVVTVPSSSLGTQTYICNVNHKPSNTKVDKKVEPKSCDKTHTCPPCPAPELLAGPDVFLFPPKPKDTLMISRTPEVTCVVVDVSHEDPEVKFNWYVDGVEVHNAKTKPREEQYNSTYRVVSVLTVLHQDWLNGKEYKCKVSNKALPAPEEKTISKAKGQPREPQVYTLPPSRCELTKNQVSLSCAVKGFYPSDIAVEWESNGQPENNYKTTPPVLDSDGSFFLVSKLTVDKSRWQQGNVFSCSVMHEALHNHYTQKSLSLSP light: DIQMTQSPSSLSASVGDRVTITCRASQDIHKYIAWYQQKPGQAPRLLIQYTSTLQPGVPSRFSGSGSGTDYTFTISSLQPEDIATYYCLQYEQLRTFGGGTKVEIKRTVAAPSVFIFPPSDEQLKSGTASVVCLLNNFYPREAKVQWKVDNALQSGNSQESVTEQDSKDSTYSLSSTLTLSKADYEKHKVYACEVTHQGLSSPVTKSFNRGEC |  |  |  |  | 0.098 | 29 | 46 | 380 | 21 | 6.8 |
| H240-Kn126/H240-Hl068/L73-k0 (antibody, human IgG1, kappa, Heterodimerized anti-EREG IgG1: Kn126 is H240-Kn120 with Y235Q) heavy 1: QDQLVQSGAEVKKPGASVKVSCKASGFNIKDTYIQWVRQAPGQGLEWMGRIDPLRKQTKYREKFEGRVTITADTSTNTAYMELSSLRSEDTAVYYCVRSGREFDYWGQGTLVTVSSASTKGPSVFPLAPSSKSTSGGTAALGCLVKDYFPEPVTVSWNSGALTSGVHTFPAVLQSSGLYSLSSVVTVPSSSLGTQTYICNVNHKPSNTKVDKKVEPKSCDKTHTCPPCPAPEYQWGPMVFLFPPKPKDTLMISRTPEVTCVVVDVSDEDPEVKFNWYVDGVEVHNAKTKPREEQYNATYRVVSVLTVLHQDWLNGKEYKCKVSNKDLPAPIEKTISKAKGQPREPQVCTLPPSRDELTKNQVSLWCLVKGFYPSDIAVEWESNGQPENNYKTTPPVLDSDGSFFLYSKLTVDKSRWQQGNVFSCSVMHEALHNHYTQKSLSLSP heavy 2: QDQLVQSGAEVKKPGASVKVSCKASGFNIKDTYIQWVRQAPGQGLEWMGRIDPLRKQTKYREKFEGRVTITADTSTNTAYMELSSLRSEDTAVYYCVRSGREFDYWGQGTLVTVSSASTKGPSVFPLAPSSKSTSGGTAALGCLVKDYFPEPVTVSWNSGALTSGVHTFPAVLQSSGLYSLSSVVTVPSSSLGTQTYICNVNHKPSNTKVDKKVEPKSCDKTHTCPPCPAPELLGGPSVFLFPPKPKDTLMISRTPEVTCVVVDVSHEEPEVKFNWYVDGVEVHNAKTKPREEQYNSTYRVVSVLTVLHQDWLNGKEYKCKVSNDALPKPIEETISKAKGQPREPQVYTLPPSRCELTKNQVSLSCAVKGFYPSDIAVEWESNGQPENNYKTTPPVLDSDGSFFLVSKLTVDKSRWQQGNVFSCSVMHEALHNHYTQKSLSLSP light: DIQMTQSPSSLSASVGDRVTITCRASQDIHKYIAWYQQKPGQAPRLLIQYTSTLQPGVPSRFSGSGSGTDYTFTISSLQPEDIATYYCLQYEQLRTFGGGTKVEIKRTVAAPSVFIFPPSDEQLKSGTASVVCLLNNFYPREAKVQWKVDNALQSGNSQESVTEQDSKDSTYSLSSTLTLSKADYEKHKVYACEVTHQGLSSPVTKSFNRGEC |  |  |  |  | 0.4 | 76 | 170 | 520 | 3.7 | 0.64 |

Source: US20180155451A1 (published 2018)
